Experimental data from patent publication US20070274981A1 (Eli Lilly, published 2007).

Assays:
[1] = biological target: T1, Recombinant FGFR-1(IIIb) (UniProt P11362-19 22-376); experiment: ELISA blocking assay: FGFR-1(IIIb) binding to immobilised FGF-2
T1 construct: Bought (R&D Systems); also called FGFR-1b; FGFR-(IIIb); not shown: Fc-tag of the recombinant receptor (detected with anti-human Fc)
T1 sequence (looked up): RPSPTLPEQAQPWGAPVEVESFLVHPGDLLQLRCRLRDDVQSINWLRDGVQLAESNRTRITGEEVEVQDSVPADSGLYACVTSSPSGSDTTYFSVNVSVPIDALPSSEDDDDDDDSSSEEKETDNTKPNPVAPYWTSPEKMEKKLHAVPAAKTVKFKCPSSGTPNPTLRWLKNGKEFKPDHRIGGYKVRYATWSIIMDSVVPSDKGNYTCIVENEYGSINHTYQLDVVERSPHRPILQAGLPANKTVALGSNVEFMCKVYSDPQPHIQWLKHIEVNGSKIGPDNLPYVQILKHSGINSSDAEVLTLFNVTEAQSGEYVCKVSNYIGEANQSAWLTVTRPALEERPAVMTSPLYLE
Description: (§1) Recombinant FGFs (R&D systems, Minneapolis, Minn.) were coated on Immulon® 2B microtiter plates (ThermoLab Systems, Franklin, Mass.) at concentrations of 0.5-2 μg/ml for 2 hrs. The plates were then washed with 0.2% Tween20/PBS, and blocked with 5% milk/PBS for 2 hrs before use. Phage or antibody was serially diluted with 5 μg/ml heparin (Sigma, St Louis, Mo.), 5% milk, PBS. Recombinant FGFR-1 (R&D Systems) was then added to a final concentration of 1 μg/ml. […] Plates were then washed 3 times with 0.2% Tween20/PBS. The bound receptors were detected using an anti-human Fc monoclonal antibody coupled with HRP (Pierce Biotechnology Inc., Rockford, Ill.) solution prepared according to supplier's instructions. Data were presented as % inhibition of ligand-receptor binding of the controls.
(§2) The blocking activities to fully active, native FGFR-1 receptor were determined in the cell-based blocking assay.

[2] = biological target: T1, Recombinant FGFR-1(IIIb); experiment: BiaCore 3000 biosensor, binding kinetics
[3] = biological target: T2, Recombinant FGFR-4 (UniProt P22455 22-369); experiment: BiaCore 3000 biosensor, binding kinetics
T2 construct: Bought (R&D Systems); also called FGFR-4(IIIc)
T2 sequence (looked up): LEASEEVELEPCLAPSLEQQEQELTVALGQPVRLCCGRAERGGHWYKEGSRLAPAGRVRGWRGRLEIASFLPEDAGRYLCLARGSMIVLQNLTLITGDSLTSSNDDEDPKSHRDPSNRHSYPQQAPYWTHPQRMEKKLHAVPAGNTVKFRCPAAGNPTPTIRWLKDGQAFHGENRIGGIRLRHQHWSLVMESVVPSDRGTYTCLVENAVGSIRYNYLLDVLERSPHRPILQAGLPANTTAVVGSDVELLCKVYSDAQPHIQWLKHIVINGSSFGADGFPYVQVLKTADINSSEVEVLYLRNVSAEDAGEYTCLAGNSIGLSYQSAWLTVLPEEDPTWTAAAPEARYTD

[4] = biological target: T1, Recombinant FGFR-1(IIIb); experiment: ELISA blocking assay: FGFR-1(IIIb) binding to immobilised FGF-1
Description: as §1, §2

[5] = biological target: T1, Recombinant FGFR-1(IIIb); experiment: kinetic analysis (BiaCore)
[6] = biological target: T1, Recombinant FGFR-1(IIIb); experiment: BiaCore analyses
[7] = biological target: T2, Recombinant FGFR-4; experiment: kinetic analysis (BiaCore)

B1: FR1-H7 (antibody, V domains shown)
VH: EVQLVQSGAEVKKPGASVKVSCKVSGYTFTDYYMHWVQQAPGKGLEWMGLVDPEDGETIYAEKFQGRVTITADTSTDTAYMELSSLRSEDTAVYYCARDDYMDVWGKGTLVTVSS
VL: ETTLTQSPDTLSLSPGEGATLSCRASQSVSGSALAWYQQKPGQAPRLLIYDASSRATGVPDRFSGSGSGADFSLTISRLEPEDFAVYSCQQYGSSPLTFGPGTKVDVKR
notes: also called FR1-H7 antibody
Q: For B1, which IC50 [1] is on record?
A: Its IC50 is 2 to 5 nM.

Q: What about the Kd [2] of the same binder?
A: The Kd was 0.06 nM.

Q: And the Kd [3]?
A: The Kd was 200 nM.

Q: And the IC50 [4]?
A: The IC50 was roughly 5 nM.

Q: What about the Kd [5] of the same binder?
A: Its Kd is roughly 0.05 nM.

B2: FR1-4H (antibody, V domains shown)
VH: QVQLVEFGPGLVKPSETLSLTCTVSGGSISSYYWSWIRQPPGKGLEWIGYIYYSGSTNYNPSLKSRVAISVDTSKNQFSLKLSSVTAADTAVYYCAREYYYDSSGYYFYAFDIWGQGTTVTVSS
VL: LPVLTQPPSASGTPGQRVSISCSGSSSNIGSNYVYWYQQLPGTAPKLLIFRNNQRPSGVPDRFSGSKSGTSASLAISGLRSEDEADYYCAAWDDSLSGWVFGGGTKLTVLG
notes: Isolated by the same procedure as FR1-H7 and FR1-A1
Q: How did the Kd [6] turn out when B2 was run?
A: The Kd was 1.1 nM.

B3: FR1-A1 (antibody, V domains shown)
VH: QVQLVQSGAEVKKPGSSVKVSCKASGQTFTGYYMHWVRQAPGQGLEWMGRIIPILGIANYAQKFQGRVTITADKSTSTAYMELSSLRSEDTAVYYCARGGDLGGMDVWGQG
VL: EIVLTQSPLSLPVTPGEPASISCRSSQSLRHSNGYNYLDWYLQKPGQSPQLLIYLASNRASGVPDRFSGSGSGTDFTLKISRVEAEDVGVYYCMQALQIPPTFGPGTKVDIKR
notes: also called FR1-A1 antibody
Q: With B3 as the binder, how does the Kd [7] read?
A: Its Kd is 90 nM.
